Reference: publication PMC9482650, “Quantitative fragmentomics allow affinity mapping of interactomes” (Nature Communications, 2022)

Legend:
Test in all cases: holdup assay
Set-up in all cases: key: below the threshold = too weak to quantify, mostly under pKd 3.1 to 4
FRMPD2_2, Q68DX3 = biological target: FRMPD2_2, Q68DX3
NHERF3_3, Q5T2W1 = biological target: T1, NHERF3_3, Q5T2W1
T1 sequence (Q5T2W1 238-333, limits assumed, looked up): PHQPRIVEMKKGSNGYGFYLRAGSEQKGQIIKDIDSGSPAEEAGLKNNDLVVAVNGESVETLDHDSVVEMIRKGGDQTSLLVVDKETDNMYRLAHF

NHERF3_4, Q5T2W1 = biological target: T2, NHERF3_4, Q5T2W1
T2 sequence (Q5T2W1 373-468, limits assumed, looked up): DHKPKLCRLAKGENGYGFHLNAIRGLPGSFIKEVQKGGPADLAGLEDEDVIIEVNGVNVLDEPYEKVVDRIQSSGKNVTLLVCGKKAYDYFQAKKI

FRMPD2_1, Q68DX3 = biological target: FRMPD2_1, Q68DX3
Inadl_8, Q8NI35 = biological target: Inadl_8, Q8NI35
SCRIB_2, Q14160 = biological target: SCRIB_2, Q14160
SNTB1, Q13884 = biological target: T3, SNTB1, Q13884
T3 sequence (Q13884 107-205, limits assumed, looked up): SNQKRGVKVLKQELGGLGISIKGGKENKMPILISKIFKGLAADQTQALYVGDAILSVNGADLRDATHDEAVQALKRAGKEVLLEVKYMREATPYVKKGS

FRMPD2_3, Q68DX3 = biological target: FRMPD2_3, Q68DX3
HTRA3, P83110 = biological target: T4, HTRA3, P83110
T4 sequence (P83110 354-453, limits assumed, looked up): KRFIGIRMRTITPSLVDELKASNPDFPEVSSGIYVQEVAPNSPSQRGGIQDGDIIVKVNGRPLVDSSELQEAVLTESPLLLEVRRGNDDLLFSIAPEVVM

LAP2, Q96RT1 = biological target: LAP2, Q96RT1
MAGI2_6, Q86UL8 = biological target: MAGI2_6, Q86UL8
MPDZ_5, O75970 = biological target: T5, MPDZ_5, O75970
T5 sequence (O75970 695-796, limits assumed, looked up): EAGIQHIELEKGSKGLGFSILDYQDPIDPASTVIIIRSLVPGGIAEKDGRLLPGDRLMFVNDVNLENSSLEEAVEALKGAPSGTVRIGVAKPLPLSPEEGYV

RHPN1, Q8TCX5 = biological target: T6, RHPN1, Q8TCX5
T6 sequence (Q8TCX5 508-602, limits assumed, looked up): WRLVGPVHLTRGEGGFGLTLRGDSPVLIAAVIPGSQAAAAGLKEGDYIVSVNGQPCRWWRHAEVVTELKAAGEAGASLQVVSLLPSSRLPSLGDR

GORASP1, Q9BQQ3 = biological target: GORASP1, Q9BQQ3
DLG3_1, Q92796 = biological target: T7, DLG3_1, Q92796
T7 sequence (Q92796 125-227, limits assumed, looked up): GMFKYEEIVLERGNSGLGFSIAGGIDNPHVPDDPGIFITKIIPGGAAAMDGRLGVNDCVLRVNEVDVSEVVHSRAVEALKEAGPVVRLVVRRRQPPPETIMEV

CASK, O14936 = biological target: CASK, O14936
MAGI3_2, Q5TCQ9 = biological target: MAGI3_2, Q5TCQ9
PDZD2_2, O15018 = biological target: T8, PDZD2_2, O15018
T8 sequence (O15018 329-429, limits assumed, looked up): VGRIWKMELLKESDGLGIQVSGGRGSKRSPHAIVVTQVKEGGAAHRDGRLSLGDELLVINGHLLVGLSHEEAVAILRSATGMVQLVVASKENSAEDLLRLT

GORASP2, Q9H8Y8 = biological target: GORASP2, Q9H8Y8
MAGI1_1, Q96QZ7 = biological target: MAGI1_1, Q96QZ7
GRIP1_7, Q9Y3R0 = biological target: T9, GRIP1_7, Q9Y3R0
T9 sequence (Q9Y3R0 999-1096, limits assumed, looked up): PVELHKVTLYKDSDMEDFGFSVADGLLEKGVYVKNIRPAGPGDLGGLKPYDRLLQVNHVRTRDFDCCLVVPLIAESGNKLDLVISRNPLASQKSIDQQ

DLG3_2, Q92796 = biological target: T10, DLG3_2, Q92796
T10 sequence (Q92796 221-321, limits assumed, looked up): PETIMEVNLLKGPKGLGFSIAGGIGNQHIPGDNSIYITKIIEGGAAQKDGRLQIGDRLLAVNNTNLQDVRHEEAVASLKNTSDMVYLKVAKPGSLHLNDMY

LIN7A, O14910 = biological target: T11, LIN7A, O14910
T11 sequence (O14910 103-200, limits assumed, looked up): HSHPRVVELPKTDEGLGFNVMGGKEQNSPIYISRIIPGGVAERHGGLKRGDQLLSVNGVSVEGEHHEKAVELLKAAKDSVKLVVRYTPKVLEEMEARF

DLG4_1, P78352 = biological target: DLG4_1, P78352
GRID2IP_1, A4D2P6 = biological target: GRID2IP_1, A4D2P6
TJP1_2, Q07157 = biological target: TJP1_2, Q07157
Inadl_5, Q8NI35 = biological target: Inadl_5, Q8NI35
[1] = plain residues with an end cap or a label only (N-terminal biotin on a linker: ado-ado)
[2] = plain residues with an end cap or a label only (N-terminal biotin on a linker: (peg)3)

Sequence of CASK, O14936 (O14936 487-570): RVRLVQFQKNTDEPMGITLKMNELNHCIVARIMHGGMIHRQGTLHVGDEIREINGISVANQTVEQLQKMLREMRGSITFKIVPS
Sequence of TJP1_2, Q07157 (Q07157 181-274): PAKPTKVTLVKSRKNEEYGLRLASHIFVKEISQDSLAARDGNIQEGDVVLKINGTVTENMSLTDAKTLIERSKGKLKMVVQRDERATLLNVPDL
Sequence of GRID2IP_1, A4D2P6 (A4D2P6 1-87): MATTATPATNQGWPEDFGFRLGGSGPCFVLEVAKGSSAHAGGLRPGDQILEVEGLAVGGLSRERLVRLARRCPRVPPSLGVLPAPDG
Sequence of SCRIB_2, Q14160 (Q14160 857-960): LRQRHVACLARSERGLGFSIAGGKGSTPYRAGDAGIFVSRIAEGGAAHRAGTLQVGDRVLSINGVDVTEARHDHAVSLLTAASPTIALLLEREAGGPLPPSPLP
Sequence of MAGI1_1, Q96QZ7 (Q96QZ7 1-106): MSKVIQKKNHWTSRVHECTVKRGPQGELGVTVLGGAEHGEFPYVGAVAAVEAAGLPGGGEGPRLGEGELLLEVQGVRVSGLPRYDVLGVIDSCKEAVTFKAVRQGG
Sequence of FRMPD2_2, Q68DX3 (Q68DX3 944-1038): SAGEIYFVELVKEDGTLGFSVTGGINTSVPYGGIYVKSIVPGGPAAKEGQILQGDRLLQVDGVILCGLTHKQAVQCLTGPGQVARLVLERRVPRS
Sequence of DLG4_1, P78352 (P78352 62-152): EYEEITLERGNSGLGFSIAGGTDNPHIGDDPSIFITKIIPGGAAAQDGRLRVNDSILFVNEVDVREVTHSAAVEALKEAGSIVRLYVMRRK
Sequence of FRMPD2_3, Q68DX3 (Q68DX3 1073-1166): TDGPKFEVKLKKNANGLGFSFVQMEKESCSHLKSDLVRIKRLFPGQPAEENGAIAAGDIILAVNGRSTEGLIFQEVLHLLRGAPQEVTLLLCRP
Sequence of LAP2, Q96RT1 (Q96RT1 other isoform, or with tags, fused parts or gaps): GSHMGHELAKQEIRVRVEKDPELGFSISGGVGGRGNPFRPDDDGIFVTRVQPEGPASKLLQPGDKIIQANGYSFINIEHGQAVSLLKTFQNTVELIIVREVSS
Sequence of MAGI3_2, Q5TCQ9 (Q5TCQ9 398-503): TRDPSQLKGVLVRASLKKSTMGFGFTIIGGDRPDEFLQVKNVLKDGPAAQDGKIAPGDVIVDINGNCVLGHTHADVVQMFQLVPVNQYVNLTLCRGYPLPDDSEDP
Sequence of Inadl_5, Q8NI35 (Q8NI35 673-780): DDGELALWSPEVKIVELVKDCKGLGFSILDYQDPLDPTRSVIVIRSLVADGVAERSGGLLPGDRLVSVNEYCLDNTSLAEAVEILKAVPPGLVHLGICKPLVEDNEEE
Sequence of GORASP1, Q9BQQ3 (Q9BQQ3 1-208): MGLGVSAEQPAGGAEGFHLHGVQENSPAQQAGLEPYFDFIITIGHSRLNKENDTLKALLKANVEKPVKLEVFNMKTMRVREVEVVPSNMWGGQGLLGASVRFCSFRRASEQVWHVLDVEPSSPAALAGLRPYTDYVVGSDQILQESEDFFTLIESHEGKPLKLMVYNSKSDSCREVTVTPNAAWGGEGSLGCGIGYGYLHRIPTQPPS
Sequence of Inadl_8, Q8NI35 (Q8NI35 1425-1530): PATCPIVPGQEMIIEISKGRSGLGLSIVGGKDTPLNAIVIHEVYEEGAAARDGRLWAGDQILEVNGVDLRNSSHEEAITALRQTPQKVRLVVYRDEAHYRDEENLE
Sequence of MAGI2_6, Q86UL8 (Q86UL8 1141-1229): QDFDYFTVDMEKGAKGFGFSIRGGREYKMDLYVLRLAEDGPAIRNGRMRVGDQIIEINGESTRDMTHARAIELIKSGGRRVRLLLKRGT
Sequence of FRMPD2_1, Q68DX3 (Q68DX3 770-861): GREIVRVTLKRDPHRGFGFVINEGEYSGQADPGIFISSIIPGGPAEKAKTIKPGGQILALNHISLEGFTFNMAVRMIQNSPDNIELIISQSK

PPGKHLVTEV [KCNA7, Q96RP8]
pKd (FRMPD2_2, Q68DX3; [1]): 4.51 | pKd (NHERF3_3, Q5T2W1; [1]): below the threshold | pKd (NHERF3_4, Q5T2W1; [1]): below the threshold | pKd (FRMPD2_1, Q68DX3; [1]): below the threshold | pKd (Inadl_8, Q8NI35; [1]): 3.98 | pKd (SCRIB_2, Q14160; [1]): 4.08 | pKd (SNTB1, Q13884; [1]): 4.32 | pKd (FRMPD2_3, Q68DX3; [1]): below the threshold | pKd (HTRA3, P83110; [1]): below the threshold | pKd (LAP2, Q96RT1; [1]): 4.39 | pKd (MAGI2_6, Q86UL8; [1]): 4.51 | pKd (MPDZ_5, O75970; [1]): below the threshold | pKd (RHPN1, Q8TCX5; [1]): 4.37 | pKd (GORASP1, Q9BQQ3; [1]): below the threshold | pKd (DLG3_1, Q92796; [1]): 4.21 | pKd (CASK, O14936; [1]): below the threshold | pKd (MAGI3_2, Q5TCQ9; [1]): 4.71 | pKd (PDZD2_2, O15018; [1]): 4.62 | pKd (GORASP2, Q9H8Y8; [1]): 4.39 | pKd (MAGI1_1, Q96QZ7; [1]): below the threshold | pKd (GRIP1_7, Q9Y3R0; [1]): below the threshold | pKd (DLG3_2, Q92796; [1]): 5.19 | pKd (LIN7A, O14910; [1]): below the threshold | pKd (DLG4_1, P78352; [1]): 4.64 | pKd (GRID2IP_1, A4D2P6; [1]): below the threshold | pKd (TJP1_2, Q07157; [1]): below the threshold | pKd (Inadl_5, Q8NI35; [1]): below the threshold

ELSATVTTDC [TRIP6, Q15654]
pKd (FRMPD2_2, Q68DX3; [1]): 3.47 | pKd (NHERF3_3, Q5T2W1; [1]): 3.87 | pKd (NHERF3_4, Q5T2W1; [1]): below the threshold | pKd (FRMPD2_1, Q68DX3; [1]): below the threshold | pKd (Inadl_8, Q8NI35; [1]): 3.55 | pKd (SCRIB_2, Q14160; [1]): below the threshold | pKd (SNTB1, Q13884; [1]): 4.34 | pKd (FRMPD2_3, Q68DX3; [1]): below the threshold | pKd (HTRA3, P83110; [1]): 4.04 | pKd (LAP2, Q96RT1; [1]): below the threshold | pKd (MAGI2_6, Q86UL8; [1]): 4.24 | pKd (MPDZ_5, O75970; [1]): below the threshold | pKd (RHPN1, Q8TCX5; [1]): 4.32 | pKd (GORASP1, Q9BQQ3; [1]): below the threshold | pKd (DLG3_1, Q92796; [1]): below the threshold | pKd (CASK, O14936; [1]): below the threshold | pKd (MAGI3_2, Q5TCQ9; [1]): below the threshold | pKd (PDZD2_2, O15018; [1]): 4.2 | pKd (GORASP2, Q9H8Y8; [1]): below the threshold | pKd (MAGI1_1, Q96QZ7; [1]): 3.82 | pKd (GRIP1_7, Q9Y3R0; [1]): below the threshold | pKd (DLG3_2, Q92796; [1]): 4.23 | pKd (LIN7A, O14910; [1]): below the threshold | pKd (DLG4_1, P78352; [1]): below the threshold | pKd (GRID2IP_1, A4D2P6; [1]): below the threshold | pKd (TJP1_2, Q07157; [1]): 4.06 | pKd (Inadl_5, Q8NI35; [1]): below the threshold

QQSMSSADSTQA [SARS-Cov2-N, P0DTC9]
pKd (FRMPD2_2, Q68DX3; [2]): below the threshold | pKd (NHERF3_3, Q5T2W1; [2]): below the threshold | pKd (NHERF3_4, Q5T2W1; [2]): below the threshold | pKd (FRMPD2_1, Q68DX3; [2]): below the threshold | pKd (Inadl_8, Q8NI35; [2]): below the threshold | pKd (SCRIB_2, Q14160; [2]): below the threshold | pKd (SNTB1, Q13884; [2]): below the threshold | pKd (FRMPD2_3, Q68DX3; [2]): below the threshold | pKd (HTRA3, P83110; [2]): below the threshold | pKd (LAP2, Q96RT1; [2]): below the threshold | pKd (MAGI2_6, Q86UL8; [2]): below the threshold | pKd (MPDZ_5, O75970; [2]): below the threshold | pKd (RHPN1, Q8TCX5; [2]): below the threshold | pKd (GORASP1, Q9BQQ3; [2]): below the threshold | pKd (DLG3_1, Q92796; [2]): below the threshold | pKd (CASK, O14936; [2]): below the threshold | pKd (MAGI3_2, Q5TCQ9; [2]): below the threshold | pKd (PDZD2_2, O15018; [2]): below the threshold | pKd (GORASP2, Q9H8Y8; [2]): below the threshold | pKd (MAGI1_1, Q96QZ7; [2]): below the threshold | pKd (GRIP1_7, Q9Y3R0; [2]): below the threshold | pKd (DLG3_2, Q92796; [2]): below the threshold | pKd (LIN7A, O14910; [2]): below the threshold | pKd (DLG4_1, P78352; [2]): below the threshold | pKd (GRID2IP_1, A4D2P6; [2]): below the threshold | pKd (TJP1_2, Q07157; [2]): below the threshold | pKd (Inadl_5, Q8NI35; [2]): below the threshold

DDASLPVSDV [PLEKHA1, Q9HB21]
pKd (FRMPD2_2, Q68DX3; [1]): 4.87 | pKd (NHERF3_3, Q5T2W1; [1]): below the threshold | pKd (NHERF3_4, Q5T2W1; [1]): below the threshold | pKd (FRMPD2_1, Q68DX3; [1]): below the threshold | pKd (Inadl_8, Q8NI35; [1]): 4.94 | pKd (SCRIB_2, Q14160; [1]): below the threshold | pKd (SNTB1, Q13884; [1]): 4.59 | pKd (FRMPD2_3, Q68DX3; [1]): below the threshold | pKd (HTRA3, P83110; [1]): below the threshold | pKd (LAP2, Q96RT1; [1]): 3.73 | pKd (MAGI2_6, Q86UL8; [1]): 5.09 | pKd (MPDZ_5, O75970; [1]): below the threshold | pKd (RHPN1, Q8TCX5; [1]): 4.46 | pKd (GORASP1, Q9BQQ3; [1]): below the threshold | pKd (DLG3_1, Q92796; [1]): below the threshold | pKd (CASK, O14936; [1]): below the threshold | pKd (MAGI3_2, Q5TCQ9; [1]): below the threshold | pKd (PDZD2_2, O15018; [1]): 5.49 | pKd (GORASP2, Q9H8Y8; [1]): below the threshold | pKd (MAGI1_1, Q96QZ7; [1]): below the threshold | pKd (GRIP1_7, Q9Y3R0; [1]): below the threshold | pKd (DLG3_2, Q92796; [1]): below the threshold | pKd (LIN7A, O14910; [1]): below the threshold | pKd (DLG4_1, P78352; [1]): below the threshold | pKd (GRID2IP_1, A4D2P6; [1]): below the threshold | pKd (TJP1_2, Q07157; [1]): below the threshold | pKd (Inadl_5, Q8NI35; [1]): below the threshold
